According to paper PMC9464890, “Exosite binding modulates the specificity of the immunomodulatory enzyme ScpA, a C5a inactivating bacterial protease” (Computational and Structural Biotechnology Journal, 2022):

T1: ScpAΔFn123 (Streptococcus pyogenes) (UniProt P15926)
T1 sequence: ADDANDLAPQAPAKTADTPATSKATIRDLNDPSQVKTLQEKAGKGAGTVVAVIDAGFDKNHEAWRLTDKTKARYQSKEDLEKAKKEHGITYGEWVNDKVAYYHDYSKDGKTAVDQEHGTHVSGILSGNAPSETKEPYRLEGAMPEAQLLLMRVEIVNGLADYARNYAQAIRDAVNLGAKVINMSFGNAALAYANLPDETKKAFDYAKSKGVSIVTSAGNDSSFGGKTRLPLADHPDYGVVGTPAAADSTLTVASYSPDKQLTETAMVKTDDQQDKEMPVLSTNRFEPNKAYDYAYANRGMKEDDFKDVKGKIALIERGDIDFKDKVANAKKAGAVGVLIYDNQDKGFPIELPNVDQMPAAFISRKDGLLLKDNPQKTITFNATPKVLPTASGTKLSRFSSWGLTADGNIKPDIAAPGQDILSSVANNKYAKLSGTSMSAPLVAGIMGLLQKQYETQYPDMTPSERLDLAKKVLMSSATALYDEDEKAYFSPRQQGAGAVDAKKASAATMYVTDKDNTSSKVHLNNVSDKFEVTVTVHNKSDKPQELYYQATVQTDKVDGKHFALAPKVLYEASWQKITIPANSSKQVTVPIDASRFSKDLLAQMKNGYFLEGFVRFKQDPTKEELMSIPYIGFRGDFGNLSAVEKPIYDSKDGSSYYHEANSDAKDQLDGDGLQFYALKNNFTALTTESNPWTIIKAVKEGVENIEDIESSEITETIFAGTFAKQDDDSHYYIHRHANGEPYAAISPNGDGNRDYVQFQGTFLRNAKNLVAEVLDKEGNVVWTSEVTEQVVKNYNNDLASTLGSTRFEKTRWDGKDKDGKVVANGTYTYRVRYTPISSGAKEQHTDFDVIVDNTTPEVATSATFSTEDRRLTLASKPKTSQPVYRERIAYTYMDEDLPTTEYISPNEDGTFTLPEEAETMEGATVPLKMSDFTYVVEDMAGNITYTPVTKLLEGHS


What was measured:
R37A_(core) (human) = experiment: SPR; as a1 (NTA chip, immobilised His-tagged C5a form, D783A_(S512A) flowed, 25 °C, Hepes buffer), but KD from fitting of the response units at equilibrium because of very fast dissociation; triplicate
R40A_(core) (human) = experiment: as above
R46A_(core) (human) = experiment: as above
rhC5a_(R37A) (human) = experiment: as above
rhC5a_(R40A) (human) = experiment: as above
rhC5a_(R46A) (human) = experiment: as above
rhC5a_(core) (human) = experiment: SPR; BIAcore X100, NTA sensor chip with about 20-25 RU of immobilised His-tagged C5a form (ligand), ScpA form flowed as ligate at 30 uL/min, 25 °C, 10 mM Hepes-KOH pH 7.4, 150 mM NaCl, 0.005% Tween 20, 50 uM EDTA; global fit, 1:1 Langmuir model with drifting baseline; triplicate
[1] = target: T1, ScpAΔFn123 (Streptococcus pyogenes)

| Binder | Kd (R37A_(core) (human)) [nM] | Kd (R40A_(core) (human)) [nM] | Kd (R46A_(core) (human)) [nM] | Kd (rhC5a_(R37A) (human)) [nM] | Kd (rhC5a_(R40A) (human)) [nM] | Kd (rhC5a_(R46A) (human)) [nM] | Kd (rhC5a_(core) (human)) [nM] | koff (rhC5a_(core) (human)) [s⁻¹] | kon (rhC5a_(core) (human)) [M⁻¹ s⁻¹] | C5a-ase activity of ScpAΔFn123 complemented with Fn123, end-point assay, relative to the wild-type enzyme (data not shown) [1] [%] |
| --- | --- | --- | --- | --- | --- | --- | --- | --- | --- | --- |
| ScpA_(S512A,D783A) (enzyme) ANTVTEDTPVTEQAVETPQPTAVSEEVPSSKETKTPQTPDDAEETIADDANDLAPQAPAKTADTPATSKATIRDLNDPSQVKTLQEKAGKGAGTVVAVIDAGFDKNHEAWRLTDKTKARYQSKEDLEKAKKEHGITYGEWVNDKVAYYHDYSKDGKTAVDQEHGTHVSGILSGNAPSETKEPYRLEGAMPEAQLLLMRVEIVNGLADYARNYAQAIRDAVNLGAKVINMSFGNAALAYANLPDETKKAFDYAKSKGVSIVTSAGNDSSFGGKTRLPLADHPDYGVVGTPAAADSTLTVASYSPDKQLTETAMVKTDDQQDKEMPVLSTNRFEPNKAYDYAYANRGMKEDDFKDVKGKIALIERGDIDFKDKVANAKKAGAVGVLIYDNQDKGFPIELPNVDQMPAAFISRKDGLLLKDNPQKTITFNATPKVLPTASGTKLSRFSSWGLTADGNIKPDIAAPGQDILSSVANNKYAKLSGTAMSAPLVAGIMGLLQKQYETQYPDMTPSERLDLAKKVLMSSATALYDEDEKAYFSPRQQGAGAVDAKKASAATMYVTDKDNTSSKVHLNNVSDKFEVTVTVHNKSDKPQELYYQATVQTDKVDGKHFALAPKVLYEASWQKITIPANSSKQVTVPIDASRFSKDLLAQMKNGYFLEGFVRFKQDPTKEELMSIPYIGFRGDFGNLSAVEKPIYDSKDGSSYYHEANSDAKDQLDGDGLQFYALKNNFTALTTESNPWTIIKAVKEGVENIEAIESSEITETIFAGTFAKQDDDSHYYIHRHANGEPYAAISPNGDGNRDYVQFQGTFLRNAKNLVAEVLDKEGNVVWTSEVTEQVVKNYNNDLASTLGSTRFEKTRWDGKDKDGKVVANGTYTYRVRYTPISSGAKEQHTDFDVIVDNTTPEVATSATFSTEDRRLTLASKPKTSQPVYRERIAYTYMDEDLPTTEYISPNEDGTFTLPEEAETMEGATVPLKMSDFTYVVEDMAGNITYTPVTKLLEGHS | > 10000 | > 15000 | 4330 | 2000 | 1500 | 669 | 1970 | 0.0216 | 11000 |  |
| Fn123 (domain or fragment) ADDANDLAPQAPAKTADTPATSKATIRDLNDPSQVKTLQEKAGKGAGTVVAVIDAGFDKNHEAWRLTDKTKARYQSKEDLEKAKKEHGITYGEWVNDKVAYYHDYSKDGKTAVDQEHGTHVSGILSGNAPSETKEPYRLEGAMPEAQLLLMRVEIVNGLADYARNYAQAIRDAVNLGAKVINMSFGNAALAYANLPDETKKAFDYAKSKGVSIVTSAGNDSSFGGKTRLPLADHPDYGVVGTPAAADSTLTVASYSPDKQLTETAMVKTDDQQDKEMPVLSTNRFEPNKAYDYAYANRGMKEDDFKDVKGKIALIERGDIDFKDKVANAKKAGAVGVLIYDNQDKGFPIELPNVDQMPAAFISRKDGLLLKDNPQKTITFNATPKVLPTASGTKLSRFSSWGLTADGNIKPDIAAPGQDILSSVANNKYAKLSGTSMSAPLVAGIMGLLQKQYETQYPDMTPSERLDLAKKVLMSSATALYDEDEKAYFSPRQQGAGAVDAKKASAATMYVTDKDNTSSKVHLNNVSDKFEVTVTVHNKSDKPQELYYQATVQTDKVDGKHFALAPKVLYEASWQKITIPANSSKQVTVPIDASRFSKDLLAQMKNGYFLEGFVRFKQDPTKEELMSIPYIGFRGDFGNLSAVEKPIYDSKDGSSYYHEANSDAKDQLDGDGLQFYALKNNFTALTTESNPWTIIKAVKEGVENIEDIESSEITETIFAGTFAKQDDDSHYYIHRHANGEPYAAISPNGDGNRDYVQFQGTFLRNAKNLVAEVLDKEGNVVWTSEVTEQVVKNYNNDLASTLGSTRFEKTRWDGKDKDGKVVANGTYTYRVRYTPISSGAKEQHTDFDVIVDNTTPEVATSATFSTEDRRLTLASKPKTSQPVYRERIAYTYMDEDLPTTEYISPNEDGTFTLPEEAETMEGATVPLKMSDFTYVVEDMAGNITYTPVTKLLEGHS |  |  |  |  |  |  |  |  |  | 0.1 |
